Test results taken from US20250109212A1 (BIOSION, published 2025).

T1: cynomolgus CD40-his protein (Biosion in house made) (cynomolgus, UniProt P25942 21-191 (human entry), limits assumed)
T1 construct: also called Cyno CD40-his
T1 chain: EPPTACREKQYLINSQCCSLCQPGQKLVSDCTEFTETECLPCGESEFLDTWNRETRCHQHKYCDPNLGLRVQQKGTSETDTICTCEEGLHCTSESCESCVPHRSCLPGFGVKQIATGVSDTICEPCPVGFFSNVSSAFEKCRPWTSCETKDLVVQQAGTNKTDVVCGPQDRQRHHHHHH

B1: SIRPαV2D1M1-Fc (IgG2) (Fc fusion)
chain: EEELQVIQPDKSVSVAAGESAILHCTITSLIPVGPIQWFRGAGPARELIYNQREGHFPRVTTVSETTKRENMDFSISISNITPADAGTYYCVKFRKGSPDTEFKSGAGTELSVRAKPSAPVVSGPAARATPGGGGSGGGGSERKCCVECPPCPAPPVAGPSVFLFPPKPKDTLMISRTPEVTCVVVDVSHEDPEVQFNWYVDGVEVHNAKTKPREEQFNSTFRVVSVLTVVHQDWLNGKEYKCKVSNKGLPAPIEKTISKTKGQPREPQVYTLPPSREEMTKNQVSLTCLVKGFYPSDIAVEWESNGQPENNYKTTPPMLDSDGSFFLYSKLTVDKSRWQQGNVFSCSVMHEALHNHYTQKSLSLSPGK
notes: also called SIRPαV2M1-Fc(IgG2)
B2: SIRPαV2D1M2-Fc (IgG2) (Fc fusion)
chain: EEELQVIQPDKSVSVAAGESAILHCTITSLIPVGPIQWFRGAGPARELIYNQREGHFPRVTTVSETTRRENMDFSISISNITPADAGTYYCVKFRKGSPDTEVKSGAGTELSVRAKPSAPVVSGPAARATPGGGGSGGGGSERKCCVECPPCPAPPVAGPSVFLFPPKPKDTLMISRTPEVTCVVVDVSHEDPEVQFNWYVDGVEVHNAKTKPREEQFNSTFRVVSVLTVVHQDWLNGKEYKCKVSNKGLPAPIEKTISKTKGQPREPQVYTLPPSREEMTKNQVSLTCLVKGFYPSDIAVEWESNGQPENNYKTTPPMLDSDGSFFLYSKLTVDKSRWQQGNVFSCSVMHEALHNHYTQKSLSLSPGK
notes: also called SIRPαV2M2-Fc(IgG2)
B3: Selicrelumab (antibody, human IgG2, kappa, V domains shown)
VH: not shown
VL: DIQMTQSPSSVSASVGDRVTITCRASQGIYSWLAWYQQKPGKAPNLLIYTASTLQSGVPSRFSGSGSGTDFTLTISSLQPEDFATYYCQQANIFPLTFGGGTKVEIKR
notes: Agonistic anti-CD40 antibody, prepared in-house
B4: BSI038×S-003 (bispecific antibody, human IgG2, kappa)
heavy: EVQLVESGGGLVKPGGSLRLSCAASGFTFSNYGISWVRQAPGKGLEWVSSISSGGDNTYYPDNVKGRFTISRDNAKNSLYLQMNSLRAEDTAVYYCARAGEKAMDYWGQGTLVTVSSASTKGPSVFPLAPCSRSTSESTAALGCLVKDYFPEPVTVSWNSGALTSGVHTFPAVLQSSGLYSLSSVVTVPSSNFGTQTYTCNVDHKPSNTKVDKTVERKCCVECPPCPAPPVAGPSVFLFPPKPKDTLMISRTPEVTCVVVDVSHEDPEVQFNWYVDGVEVHNAKTKPREEQFNSTFRVVSVLTVVHQDWLNGKEYKCKVSNKGLPAPIEKTISKTKGQPREPQVYTLPPSREEMTKNQVSLTCLVKGFYPSDIAVEWESNGQPENNYKTTPPMLDSDGSFFLYSKLTVDKSRWQQGNVFSCSVMHEALHNHYTQKSLSLSPGK
light: not shown
notes: Wild-type SIRPαV2D1 linked to C-terminus of each light chain of HuCD40-C1H1-V2 (human IgG2)
B5: BSI038×S-001 (bispecific antibody, human IgG2, kappa)
heavy: not shown
light: EIVLTQSPATLSLSPGERATLSCRASQTINNNLHWYQQKPGQAPRLLIKYASQSISGIPARFSGSGSGTDFTLTISSLEPEDFAVYFCQQFSSWPLTFGGGTKVEIKRTVAAPSVFIFPPSDEQLKSGTASVVCLLNNFYPREAKVQWKVDNALQSGNSQESVTEQDSKDSTYSLSSTLTLSKADYEKHKVYACEVTHQGLSSPVTKSFNRGEC
notes: Wild-type SIRPαV2D1 linked to C-terminus of each heavy chain of HuCD40-C1H1-V2 (human IgG2)

Legend:
[1] = target: T2, cynomolgus CD47-his protein (Cat #: CD7-C52H1, Acro biosystems) (cynomolgus, UniProt A0A2K5X523 19-139); test: SPR (Biacore T200), sample on Protein A chip, antigen-his analyte, 1:1 fit
T2 construct: Bought protein; also called Cyno CD47-his
Excerpt: (§1) The purified recombinant fusion proteins were characterized for their binding affinity and binding kinetics by Biacore T200 system (GE healthcare, Pittsburgh, PA, USA). The anti-CD40 antibody HuCD40-C1H1-V2 (having the heavy chain and the light chain of SEQ ID NOs: 19 and 20), Selicrelumab (an agonistic anti-CD40 antibody, Roche Inc., prepared in-house with heavy and light chains of SEQ ID NOs: 27 and 28), and SIRPα-Fc fusion proteins, including SIRPαV2D1M1-Fc (IgG2) (SEQ ID NO: 21, X1=I, X2=R, X3=T, X4=K, X5=F), SIRPαV2D1M2-Fc (IgG2) (SEQ ID NO: 21, X1=I, X2=R, X3=T, X4=R, X5=V), SIRPα-isoform2-Fc (SEQ ID NO: 25) were used as positive controls.
(§2) A Protein A chip (Cat #: 29-1275-56, GE healthcare) was used for affinity determination. The recombinant fusion proteins of the disclosure and the positive controls each at the concentration of 2 μg/ml were respectively flowed onto the chip at a flow rate of 10 μl/min. Then, serially diluted recombinant human CD40-his proteins (Cat #: CD0-H5228, Acro biosystems), human CD47-his proteins (Cat #: CD7-H5227, Acro biosystems), cynomolgus CD40-his proteins (Biosion in house made, SEQ ID NO: 29) or cynomolgus CD47-his proteins (Cat #: CD7-C52H1, Acro biosystems), 2-fold dilution in HBS-EP⁺ buffer (provided by Biacore) with a starting concentration of 200 nM, were flowed onto the chip at a flow rate of 30 μl/min. The association kinetics was followed for 2 minutes and the dissociation kinetics was followed for 10 minutes. The association and dissociation curves were fit to a 1:1 Langmuir binding model using the Biacore evaluation software.

[2] = target: T3, human CD47-his protein (Cat #: CD7-H5227, Acro biosystems) (human, UniProt Q08722 19-139); test: as above
T3 construct: Bought protein
Excerpt: as §1, §2

[3] = target: T4, biotin-labeled human CD47-Fc (Biosion in house made) (human, biotin-labeled (sites not given)); test: competitive ELISA: binder premixed with biotin-labeled human CD47-Fc, blocked partner coated human CD172a-Fc, OD(450-630)
T4 construct: also called Human CD47-Fc protein
Protocol: (§3) The ability of the recombinant fusion proteins of the disclosure to block CD47-CD172a binding was measured in a competitive ELISA assay. Briefly, 100 μl/well human CD172a-Fc proteins (prepared in-house with amino acid sequence of SEQ ID NO: 24) were coated on 96-well micro plates at 2 μg/mL in coating buffer (carbonate/bicarbonate buffer) and incubated overnight at 4° C. The next day, the plates were washed once with wash buffer (PBS+0.05% v/v Tween-20, PBST), and then blocked with 5% w/v non-fatty milk in PBST for 2 hours at 37° C. The plates were then washed 4 times using wash buffer.
Serially diluted recombinant fusion proteins of the disclosure or controls (starting at 100 nM with a 5-fold serial dilution) were mixed with 20 ng/ml biotin-labeled human CD47-Fc (Biosion in house made, SEQ ID NO: 23) in PBST with 2.5% w/v non-fatty milk. The mixtures were incubated at 37° C. for 40 minutes, and respectively added to the CD172a-Fc bound plates, 100 μl per well. The plates were incubated at 37° C. for 40 minutes, washed 4 times using wash buffer, added with 100 μl/well streptavidin conjugated HRP (1:10000 dilution in PBST buffer, Cat #: 016-030-084, Jackson ImmunoResearch), incubated for 40 minutes at 37° C., and washed again using wash buffer. […] The plates were read on a microplate reader using the dual wavelength mode with 450 nm for TMB and 630 nm as the reference wavelength, and the OD (450-630) values were plotted against the recombinant fusion protein or controls concentration. Data was analyzed using Graphpad Prism and IC₅₀ values were reported. Wild-type SIRPαV2D1-Fc (IgG2) (SEQ ID NO: 21, X1=V, X2=K, X3=S, X4=K, X5=F) was used as a positive control.

[4] = target: human CD40-Fc protein (prepared in-house) (human); test: competitive ELISA: human CD40-Fc coated, blocked ligand biotin-labeled human CD40L-his, OD(450-630)
Protocol: as §3, with “CD40-CD40L” for “CD47-CD172a”, “CD40-Fc” for “CD172a-Fc”, “22)” for “24)”, “using the” for “using”
Serially diluted recombinant fusion proteins of the disclosure or controls (starting at 10 µg/mL with a 5-fold serial dilution) in PBST with 2.5% w/v non-fatty milk were added to the CD40-Fc bound plates, 100 μl per well, and incubated at 37° C. for 40 minutes. The plates were washed 4 times using wash buffer, and then added and incubated for 40 minutes at 37° C. with 100 μl/well 95 ng/mL biotin-labeled human CD40L-his protein (Cat #: 10239-H08E, Sino biological). The plates were washed again using wash buffer, added with 100 μl/well streptavidin conjugated HRP (1:10000 dilution in PBST buffer, Cat #: 016-030-084, Jackson ImmunoResearch) and incubated for 40 minutes at 37° C. The plates were washed again using wash buffer. […] The absorbance was read on a microplate reader using the dual wavelength mode with 450 nm for TMB and 630 nm as the reference wavelength, then the OD (450-630) values were plotted against the recombinant fusion protein or controls concentration. Data was analyzed using Graphpad Prism and IC₅₀ values were reported.

[5] = target: T5, full length human CD40 (uniprot #P25942-1) on 293T-CD40 cells (human, UniProt P25942 21-277); test: FACS on 293T-CD40 cells, detection with goat anti-human IgG (Fab)-PE, MFI
T5 construct: whole, on cells
Protocol: Following an incubation of 40 minutes at 4° C. in dark, cells were washed three times and resuspended in FACS buffer. Fluorescence was measured using a Becton Dickinson FACS Canto II-HTS equipment and plotted against the recombinant fusion protein or controls concentration. Data was analyzed using Graphpad Prism and EC₅₀ values were reported.

[6] = target: T6, recombinant human CD40-his protein (Cat #: CD0-H5228, Acro biosystems) (human, UniProt P25942 21-193); test: SPR (Biacore T200), sample on Protein A chip, antigen-his analyte, 1:1 fit
T6 construct: Bought protein
Excerpt: as §1, §2

[7] = target: T1, cynomolgus CD40-his protein (Biosion in …); test: as above
Excerpt: as §1, §2

Binder | Kd [1] | koff [1] | kon [1] | Kd [2] | koff [2] | kon [2] | IC50 [3] | IC50 [4] | EC50 [5] | Kd [6] | koff [6] | kon [6] | Kd [7] | koff [7] | kon [7]
B1 | 4.88 nM | 0.000371 s⁻¹ | 76000 M⁻¹ s⁻¹ | 0.952 nM | 0.000401 s⁻¹ | 421000 M⁻¹ s⁻¹ | 8.87 nM |  |  |  |  |  |  |  | 
B2 | 7.01 nM | 0.000438 s⁻¹ | 62400 M⁻¹ s⁻¹ | 1.07 nM | 0.000417 s⁻¹ | 388000 M⁻¹ s⁻¹ | 11.8 nM |  |  |  |  |  |  |  | 
B3 |  |  |  |  |  |  |  | 3.33 nM | 2.28 nM | 6.41 nM | 0.00231 s⁻¹ | 360000 M⁻¹ s⁻¹ | 16.8 nM | 0.00219 s⁻¹ | 131000 M⁻¹ s⁻¹
B4 |  |  |  |  |  |  |  | 2.93 nM | 1.54 nM | 0.71 nM | 0.00183 s⁻¹ | 2.57e+06 M⁻¹ s⁻¹ |  |  | 
B5 |  |  |  |  |  |  |  | ~2.21 nM | 1.45 nM | 0.771 nM | 0.00188 s⁻¹ | 2.44e+06 M⁻¹ s⁻¹ |  |  | 
